In article doi:10.1101/2022.08.03.502719 one finds Kd data, which are given here for two substances.

The target in test [1] is VL9 peptide HLA-E single chain trimer (soluble) (human). Nature of the test: SPR.
Test [2] concerns the target WN peptide HLA-E single chain trimer (soluble) (human). Briefly: SPR. In general terms: SPR reads the build-up and loss of mass on a sensor chip optically.

For the substance “CD94/NKG2A single-chain fusion protein (NKG2A ectodomain-GGSGGS-CD94 ectodomain), soluble, for SPR (from UniProt P26715 94-233; Q13241 32-179) (receptor)”, the Kd (in general, the free concentration of one partner at which half of the binding sites on the other are occupied at equilibrium, for simple one-to-one binding) in test [1] came to 8.2 µM; in test [2] it was 41.5 µM.
For “CD94/NKG2C single-chain fusion protein (NKG2C ectodomain-GGSGGS-CD94 ectodomain), soluble, for SPR (from UniProt P26717 94-231; Q13241 32-179) (receptor)”, in that order: 21.4 µM and 17.4 µM.
